The experiment concerns the target PERV TM_(493–587) (tag intact) (porcine endogenous retrovirus A (PERV-A)). Nature of the experiment: SEC; Superdex 75 10/300 GL in 10 mM Tris-HCl, pH 7.5, 150 mM NaCl; calibrated with protein standards (Kav curve); apparent MW ~43 kDa against theoretical trimeric MW 39.9 kDa. In general terms: Size exclusion chromatography separates by hydrodynamic size, large species first.

As a reminder, the stoichiometry N is the number of molecules, sites or subunits per partner or assembly. In the case of “PERV TM_(493–587) (tag intact) (domain or fragment)”, the stoichiometry N is 3.

Values taken from article PMC8787476.
